Positions of bridges follow the written chain, without caps; N, C: chain ends. Non-standard residues stand in square brackets, D forms with d. 2Nal = N[C@@H](Cc1ccc2ccccc2c1)C(=O)O; d2Nal = N[C@H](Cc1ccc2ccccc2c1)C(=O)O; Cit = NC(=O)NCCC[C@H](N)C(=O)O; Nle = CCCC[C@H](N)C(=O)O; Aib = CC(C)(N)C(=O)O
What was measured:
Experiment in all cases: cell-based or functional assay
[1] = molecular target: T1, human MC4R receptor (human, UniProt P32245 1-332)
[2] = molecular target: T1, human MC4R receptor; remark: listed apart in the source
[3] = molecular target: human MC3R (human, UniProt P41968 1-323)
Sequence of human MC3R (P41968 whole entry): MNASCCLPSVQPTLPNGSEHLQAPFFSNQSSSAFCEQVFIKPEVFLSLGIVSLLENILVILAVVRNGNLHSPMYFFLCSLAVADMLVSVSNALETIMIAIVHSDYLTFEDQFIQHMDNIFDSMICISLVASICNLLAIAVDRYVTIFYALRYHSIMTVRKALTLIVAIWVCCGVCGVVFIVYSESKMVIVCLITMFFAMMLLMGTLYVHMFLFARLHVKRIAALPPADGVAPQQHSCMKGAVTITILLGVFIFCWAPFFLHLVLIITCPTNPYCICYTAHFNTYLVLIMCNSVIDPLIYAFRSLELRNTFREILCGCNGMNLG

T1 sequence (P32245 whole entry): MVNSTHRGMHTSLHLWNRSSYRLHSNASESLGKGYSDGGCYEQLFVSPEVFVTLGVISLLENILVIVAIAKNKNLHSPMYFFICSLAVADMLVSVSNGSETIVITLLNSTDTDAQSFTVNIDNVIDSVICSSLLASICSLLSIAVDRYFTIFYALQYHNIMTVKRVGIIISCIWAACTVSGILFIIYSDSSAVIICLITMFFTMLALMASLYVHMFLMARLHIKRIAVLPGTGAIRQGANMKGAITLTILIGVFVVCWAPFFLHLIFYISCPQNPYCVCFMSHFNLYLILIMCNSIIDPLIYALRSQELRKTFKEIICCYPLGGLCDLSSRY

| MC4R selectivity vs MC1R [1] | MC4R selectivity vs MC3R [1] | % max activation [2] | cAMP EC50 [2] | % max activation [3] | cAMP EC50 [3] | Binder |
| --- | --- | --- | --- | --- | --- | --- |
| 3.66 | 30 | 109% | 0.68 nM | 102% | 21 nM | {CH2CO}-[Aib]H[dF]RWC-NH2 (thioether N-6; SMILES CC1(C)NC(=O)CSC[C@@H](C(N)=O)NC(=O)[C@H](Cc2c[nH]c3ccccc23)NC(=O)[C@H](CCCNC(=N)N)NC(=O)[C@@H](Cc2ccccc2)NC(=O)[C@H](Cc2c[nH]cn2)NC1=O) [CTX-1647] |
| 13 | 63 | 101% | 1.1 nM | 91% | 72 nM | {CH2CO}-[Aib]R[dF]RWC-NH2 (thioether N-6; SMILES CC1(C)NC(=O)CSC[C@@H](C(N)=O)NC(=O)[C@H](Cc2c[nH]c3ccccc23)NC(=O)[C@H](CCCNC(=N)N)NC(=O)[C@@H](Cc2ccccc2)NC(=O)[C@H](CCCNC(=N)N)NC1=O) [CTX-1648] |
| 1650 | 72 | 97% | 6.6 nM | 79% | 479 nM | {CH2CO}-[Aib][Cit][dF]RWC-NH2 (thioether N-6; SMILES CC1(C)NC(=O)CSC[C@@H](C(N)=O)NC(=O)[C@H](Cc2c[nH]c3ccccc23)NC(=O)[C@H](CCCNC(=N)N)NC(=O)[C@@H](Cc2ccccc2)NC(=O)[C@H](CCCNC(N)=O)NC1=O) [CTX-1649] |
| 0.62 | 5.41 | 81% | 1090 nM | 43% | 5890 nM | {CH2CO}-GR[dF]RFC-NH2 (thioether N-6; SMILES N=C(N)NCCC[C@@H]1NC(=O)CNC(=O)CSC[C@@H](C(N)=O)NC(=O)[C@H](Cc2ccccc2)NC(=O)[C@H](CCCNC(=N)N)NC(=O)[C@@H](Cc2ccccc2)NC1=O) [CTX-1654] |
| – | 0.01 | 87% | 7210 nM | 99% | 39 nM | Ac-[Nle]CH[2Nal]R[dW]CRFG-NH2 (disulfide 2-7; SMILES CCCC[C@H](NC(C)=O)C(=O)N[C@H]1CSSC[C@@H](C(=O)N[C@@H](CCCNC(=N)N)C(=O)N[C@@H](Cc2ccccc2)C(=O)NCC(N)=O)NC(=O)[C@@H](Cc2c[nH]c3ccccc23)NC(=O)[C@H](CCCNC(=N)N)NC(=O)[C@H](Cc2ccc3ccccc3c2)NC(=O)[C@H](Cc2c[nH]cn2)NC1=O) [CTX-2128] |
| 1.42 | 3.56 | 78% | 2470 nM | 30% | 8810 nM | {CH2CO}-[dA]R[dF]RFC-NH2 (thioether N-6; SMILES C[C@H]1NC(=O)CSC[C@@H](C(N)=O)NC(=O)[C@H](Cc2ccccc2)NC(=O)[C@H](CCCNC(=N)N)NC(=O)[C@@H](Cc2ccccc2)NC(=O)[C@H](CCCNC(=N)N)NC1=O) [CTX-1657] |
| 0.14 | 0.29 | 80% | 13 nM | 44% | 3.7 nM | Ac-RC[dA]R[dF]R[d2Nal]C-NH2 (disulfide 2-8) [CTX-1264] |
| 1.45 | > 8 | 92% | 1190 nM | – | > 10000 nM | {CH2CO}-[Aib]R[dF]RFC-NH2 (thioether N-6; SMILES CC1(C)NC(=O)CSC[C@@H](C(N)=O)NC(=O)[C@H](Cc2ccccc2)NC(=O)[C@H](CCCNC(=N)N)NC(=O)[C@@H](Cc2ccccc2)NC(=O)[C@H](CCCNC(=N)N)NC1=O) [CTX-1651] |
| 8.32 | 2.82 | 88% | 2730 nM | 44% | 7690 nM | Ac-CG[Cit][dF]RFC-NH2 (disulfide 1-7; SMILES CC(=O)N[C@H]1CSSC[C@@H](C(N)=O)NC(=O)[C@H](Cc2ccccc2)NC(=O)[C@H](CCCNC(=N)N)NC(=O)[C@@H](Cc2ccccc2)NC(=O)[C@H](CCCNC(N)=O)NC(=O)CNC1=O) [CTX-1639] |
| 0.83 | > 8 | 83% | 1220 nM | – | > 10000 nM | {CH2CO}-GH[dF]RFC-NH2 (thioether N-6; SMILES N=C(N)NCCC[C@@H]1NC(=O)[C@@H](Cc2ccccc2)NC(=O)[C@H](Cc2c[nH]cn2)NC(=O)CNC(=O)CSC[C@@H](C(N)=O)NC(=O)[C@H](Cc2ccccc2)NC1=O) [CTX-1653] |
| 1.73 | 1.62 | 93% | 6.5 nM | 69% | 11 nM | Ac-RC[dA]R[dF]R[dW]C-NH2 (disulfide 2-8; SMILES CC(=O)N[C@@H](CCCNC(=N)N)C(=O)N[C@H]1CSSC[C@@H](C(N)=O)NC(=O)[C@@H](Cc2c[nH]c3ccccc23)NC(=O)[C@H](CCCNC(=N)N)NC(=O)[C@@H](Cc2ccccc2)NC(=O)[C@H](CCCNC(=N)N)NC(=O)[C@@H](C)NC1=O) [CTX-1263] |
| 0.95 | 53 | 113% | 288 nM | 125% | 15200 nM | {CH2CO}-[Aib]H[dF]RFC-NH2 (thioether N-6; SMILES CC1(C)NC(=O)CSC[C@@H](C(N)=O)NC(=O)[C@H](Cc2ccccc2)NC(=O)[C@H](CCCNC(=N)N)NC(=O)[C@@H](Cc2ccccc2)NC(=O)[C@H](Cc2c[nH]cn2)NC1=O) [CTX-1650] |
| 4.84 | 53 | 111% | 2.3 nM | 107% | 120 nM | {CH2CO}-GH[dF]RWC-NH2 (thioether N-6; SMILES N=C(N)NCCC[C@@H]1NC(=O)[C@@H](Cc2ccccc2)NC(=O)[C@H](Cc2c[nH]cn2)NC(=O)CNC(=O)CSC[C@@H](C(N)=O)NC(=O)[C@H](Cc2c[nH]c3ccccc23)NC1=O) [CTX-1644] |
| 1.04 | 1.66 | 110% | 351 nM | 75% | 408 nM | Ac-CGR[dF]RFC-NH2 (disulfide 1-7; SMILES CC(=O)N[C@H]1CSSC[C@@H](C(N)=O)NC(=O)[C@H](Cc2ccccc2)NC(=O)[C@H](CCCNC(=N)N)NC(=O)[C@@H](Cc2ccccc2)NC(=O)[C@H](CCCNC(=N)N)NC(=O)CNC1=O) [CTX-1638] |
| 9.04 | 42 | 110% | 1.6 nM | 97% | 68 nM | {CH2CO}-GR[dF]RWC-NH2 (thioether N-6; SMILES N=C(N)NCCC[C@@H]1NC(=O)CNC(=O)CSC[C@@H](C(N)=O)NC(=O)[C@H](Cc2c[nH]c3ccccc23)NC(=O)[C@H](CCCNC(=N)N)NC(=O)[C@@H](Cc2ccccc2)NC1=O) [CTX-1645] |
| 13 | 29 | 107% | 2.9 nM | 90% | 83 nM | {CH2CO}-[dA]R[dF]RWC-NH2 (thioether N-6; SMILES C[C@H]1NC(=O)CSC[C@@H](C(N)=O)NC(=O)[C@H](Cc2c[nH]c3ccccc23)NC(=O)[C@H](CCCNC(=N)N)NC(=O)[C@@H](Cc2ccccc2)NC(=O)[C@H](CCCNC(=N)N)NC1=O) [CTX-1642] |
| 1 | 1.64 | 98% | 1400 nM | 86% | 2300 nM | {CH2CO}-[dA]H[dF]RFC-NH2 (thioether N-6; SMILES C[C@H]1NC(=O)CSC[C@@H](C(N)=O)NC(=O)[C@H](Cc2ccccc2)NC(=O)[C@H](CCCNC(=N)N)NC(=O)[C@@H](Cc2ccccc2)NC(=O)[C@H](Cc2c[nH]cn2)NC1=O) [CTX-1656] |
| 261 | 133 | 111% | 19 nM | 81% | 2550 nM | {CH2CO}-[dA][Cit][dF]RWC-NH2 (thioether N-6; SMILES C[C@H]1NC(=O)CSC[C@@H](C(N)=O)NC(=O)[C@H](Cc2c[nH]c3ccccc23)NC(=O)[C@H](CCCNC(=N)N)NC(=O)[C@@H](Cc2ccccc2)NC(=O)[C@H](CCCNC(N)=O)NC1=O) [CTX-1643] |
| > 770 | 193 | 103% | 13 nM | 70% | 2420 nM | {CH2CO}-G[Cit][dF]RWC-NH2 (thioether N-6; SMILES N=C(N)NCCC[C@@H]1NC(=O)[C@@H](Cc2ccccc2)NC(=O)[C@H](CCCNC(N)=O)NC(=O)CNC(=O)CSC[C@@H](C(N)=O)NC(=O)[C@H](Cc2c[nH]c3ccccc23)NC1=O) [CTX-1646] |
